B1: Chromobox protein homolog 7 (Homo sapiens), O95931 (parent)
chain: MELSAIGEQVFAVESIRKKRVRKGKVEYLVKWKGWPPKYSTWEPEEHILDPRLVMAYEEKEERDRASGYRKRGPKPKRLLLQRLYSMDLRSSHKAKGKEKLCFSLTCPLGSGSPEGVVKAGAPELVDKGPLVPTLPFPLRKPRKAHKYLRLSRKKFPPRGPNLESHSHRRELFLQEPPAPDVLQAAGEWEPAAQPPEEEADADLAEGPPPWTPALPSSEVTVTDITANSITVTFREAQAAEGFFRDRSGKF
B2: E3 ubiquitin-protein ligase RING2 (Homo sapiens), Q99496 (parent)
chain: MSQAVQTNGTQPLSKTWELSLYELQRTPQEAITDGLEIVVSPRSLHSELMCPICLDMLKNTMTTKECLHRFCADCIITALRSGNKECPTCRKKLVSKRSLRPDPNFDALISKIYPSRDEYEAHQERVLARINKHNNQQALSHSIEEGLKIQAMNRLQRGKKQQIENGSGAEDNGDSSHCSNASTHSNQEAGPSNKRTKTSDDSGLELDNNNAAMAIDPVMDGASEIELVFRPHPTLMEKDDSAQTRYIKTSGNATVDHLSKYLAVRLALEELRSKGESNQMNLDTASEKQYTIYIATASGQFTVLNGSFSLELVSEKYWKVNKPMELYYAPTKEHK
partner: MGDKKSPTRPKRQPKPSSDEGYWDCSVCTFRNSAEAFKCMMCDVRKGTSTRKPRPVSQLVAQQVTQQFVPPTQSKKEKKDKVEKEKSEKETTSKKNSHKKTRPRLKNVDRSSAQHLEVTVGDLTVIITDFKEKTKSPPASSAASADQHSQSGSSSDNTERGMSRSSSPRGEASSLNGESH

Variants of: B1
Details: with ring2_human RNF2, Q99496

Row | effect of a mutation on the interaction | Variant
1 | disrupting interaction | MELSAIGEQVFAVESIRKKRVRKGKVEYLVKWKGWPPKYSTWEPEEHILDPRLVMAYEEKEERDRASGYRKRGPKPKRLLLQRLYSMDLRSSHKAKGKEKLCFSLTCPLGSGSPEGVVKAGAPELVDKGPLVPTLPFPLRKPRKAHKYLRLSRKKFPPRGPNLESHSHRRELFLQEPPAPDVLQAAGEWEPAAQPPEEEADADLAEGPPPWTPALPSSEVTVTDITANSITVTDREAQAAEGFFRDRSGKF [F234D]

Variants of: B2
Details: with YAF2, Q8IY57-1

Row | effect of a mutation on the interaction | Variant
2 | disrupting interaction | MSQAVQTNGTQPLSKTWELSLYELQRTPQEAITDGLEIVVSPRSLHSELMCPICLDMLKNTMTTKECLHRFCADCIITALRSGNKECPTCRKKLVSKRSLRPDPNFDALISKIYPSRDEYEAHQERVLARINKHNNQQALSHSIEEGLKIQAMNRLQRGKKQQIENGSGAEDNGDSSHCSNASTHSNQEAGPSNKRTKTSDDSGLELDNNNAAMAIDPVMDGASEIELVFRPHPTLMEKDDSAQTRYIKTSGNATVDALSKYLAVRLALEELRSKGESNQMNLDTASEKQYTIYIATASGQFTVLNGSFSLELVSEKYWKVNKPMELYYAPTKEHK [H258A]
3 | disrupting interaction | MSQAVQTNGTQPLSKTWELSLYELQRTPQEAITDGLEIVVSPRSLHSELMCPICLDMLKNTMTTKECLHRFCADCIITALRSGNKECPTCRKKLVSKRSLRPDPNFDALISKIYPSRDEYEAHQERVLARINKHNNQQALSHSIEEGLKIQAMNRLQRGKKQQIENGSGAEDNGDSSHCSNASTHSNQEAGPSNKRTKTSDDSGLELDNNNAAMAIDPVMDGASEIELVFRPHPTLMEKDDSAQTRYIKTSGNATVDHLSKALAVRLALEELRSKGESNQMNLDTASEKQYTIYIATASGQFTVLNGSFSLELVSEKYWKVNKPMELYYAPTKEHK [Y262A]
